Data from patent US20210145828A1 (RUTGERS THE STATE UNIVERSITY OF NEW JERSEY, published 2021).

Biological target: T1, Gα12 (human, UniProt Q03113 1-381)
T1 sequence: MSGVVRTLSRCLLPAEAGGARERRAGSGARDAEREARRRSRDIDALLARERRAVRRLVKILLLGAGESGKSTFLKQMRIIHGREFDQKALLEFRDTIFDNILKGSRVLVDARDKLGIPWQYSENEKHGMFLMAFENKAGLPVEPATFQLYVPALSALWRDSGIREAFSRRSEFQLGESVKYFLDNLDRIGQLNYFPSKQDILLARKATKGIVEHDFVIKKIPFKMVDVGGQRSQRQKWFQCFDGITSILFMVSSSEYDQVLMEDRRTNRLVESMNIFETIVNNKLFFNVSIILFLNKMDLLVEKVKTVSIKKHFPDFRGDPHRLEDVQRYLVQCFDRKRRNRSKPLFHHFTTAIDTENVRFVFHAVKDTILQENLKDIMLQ
Experiment: cell-based or functional assay

SRE-luciferase reporter activity after carbachol stimulation (10 µM, 6 hours): 76
B1: M3-muscarinic acetylcholine receptor (M3R) (receptor)
chain: not shown
